Source: patent US20240301040A1

How the values were obtained:
[1] = target: IL-1 receptor (IL-1R) (rat) (UniProt Q02955); test: co-immunoprecipitation, adult control rats, hippocampal synaptosomes, mean±SEM
[2] = target: IL-1 receptor (IL-1R) (rat) (UniProt Q02955); test: co-immunoprecipitation, adult ENV-expressing rats, hippocampal synaptosomes, mean±SEM

Sequence of UniProt Q02955 (Q02955 20-576): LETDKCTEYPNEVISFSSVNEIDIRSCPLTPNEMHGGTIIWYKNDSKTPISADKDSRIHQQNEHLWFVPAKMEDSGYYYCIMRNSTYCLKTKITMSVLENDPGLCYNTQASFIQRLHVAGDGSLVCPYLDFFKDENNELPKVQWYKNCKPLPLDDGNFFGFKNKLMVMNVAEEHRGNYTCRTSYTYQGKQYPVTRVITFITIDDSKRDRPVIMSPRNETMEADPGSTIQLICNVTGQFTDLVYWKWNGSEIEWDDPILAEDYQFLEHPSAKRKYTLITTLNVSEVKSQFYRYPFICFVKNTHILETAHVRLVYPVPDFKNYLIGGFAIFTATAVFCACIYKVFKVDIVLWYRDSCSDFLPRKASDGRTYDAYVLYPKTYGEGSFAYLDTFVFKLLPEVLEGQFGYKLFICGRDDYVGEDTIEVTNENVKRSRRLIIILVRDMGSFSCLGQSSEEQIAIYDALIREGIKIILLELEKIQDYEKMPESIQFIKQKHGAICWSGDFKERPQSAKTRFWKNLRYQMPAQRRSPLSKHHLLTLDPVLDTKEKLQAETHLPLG

Substance | co-IP GluN2B/IL-1R (normalised to control animals) [1] | co-IP GluN2B/IL-1R (normalised to control animals) [2] | co-IP GluN2A/IL-1R (normalised to control animals) [1] | co-IP GluN2A/IL-1R (normalised to control animals) [2]
GluN2B-NMDAR (GluN2B-containing NMDA receptor) (from UniProt Q00960 27-1482) | 1 | 0.95 |  | 
GluN2A-NMDAR (GluN2A-containing NMDA receptor) (from UniProt Q00959 23-1464) |  |  | 1 | 1.04
